According to publication PMC6219920 (Developmental cell, 2018):

Molecular target: wild type CENP-A complexed with histone H4 (human, UniProt P49450 1-140; P62805 1-103)
Assay: pull-down

binding result: binds
B1: MBP-HJURP^1−208 (domain or fragment)
chain: MLGTLRAMEGEDVEDDQLLQKLRASRRRFQRRMQRLIEKYNQPFEDTPVVQMATLTYETPQGLRIWGGRLIKERNEGEIQDSSMKPADRTDGSVQAAAWGPELPSHRTVLGADSKSGEVDATSDQEESVAWALAPAVPQSPLKNELRRKYLTQVDILLQGAEYFECAGNRAGRDVRVTPLPSLASPAVPAPGYCSRISRKSPGDPAKP
